Reference: patent US20240197902A1 (ACCELERON PHARMA, published 2024)
Positions count from the first letter of the chain named. Names and notes keep the numbering of the source.

What was measured:
[1] = biological target: T1, activin A (UniProt P08476 311-426); experiment: SPR (Biacore), Fc fusion captured by anti-Fc antibody
T1 sequence (looked up): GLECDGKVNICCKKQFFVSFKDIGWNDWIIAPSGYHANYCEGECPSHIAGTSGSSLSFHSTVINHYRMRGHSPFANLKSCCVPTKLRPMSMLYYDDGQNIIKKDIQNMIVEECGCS

[2] = biological target: T2, BMP9 (UniProt Q9UK05 320-429); experiment: as above
T2 construct: also called GDF2
T2 sequence (looked up): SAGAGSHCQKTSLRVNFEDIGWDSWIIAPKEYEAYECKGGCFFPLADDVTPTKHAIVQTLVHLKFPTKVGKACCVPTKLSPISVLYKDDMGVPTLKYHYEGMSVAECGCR

[3] = biological target: T3, BMP10 (UniProt O95393 317-424); experiment: as above
T3 sequence (looked up): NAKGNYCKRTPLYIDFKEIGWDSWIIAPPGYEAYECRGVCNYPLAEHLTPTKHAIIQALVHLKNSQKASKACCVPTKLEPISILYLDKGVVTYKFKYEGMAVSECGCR

[4] = biological target: T4, activin B (UniProt P09529 293-407); experiment: as above
T4 sequence (looked up): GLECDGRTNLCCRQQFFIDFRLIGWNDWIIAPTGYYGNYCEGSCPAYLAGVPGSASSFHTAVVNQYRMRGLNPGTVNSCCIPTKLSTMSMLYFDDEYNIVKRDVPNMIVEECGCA

[5] = biological target: T5, activin C (UniProt P55103 237-352); experiment: as above
T5 sequence (looked up): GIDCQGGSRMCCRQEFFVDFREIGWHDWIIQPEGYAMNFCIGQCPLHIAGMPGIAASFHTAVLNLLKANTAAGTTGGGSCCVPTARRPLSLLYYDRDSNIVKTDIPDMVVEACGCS

[6] = biological target: T6, activin AC (UniProt P08476 311-426; P55103 237-352); experiment: as above
T6 construct: Heterodimer of beta A and beta C subunits
T6 sequence (looked up) 1: T1 sequence (looked up)
T6 sequence (looked up) 2: T5 sequence (looked up)

[7] = biological target: T7, GDF3 (UniProt Q9NR23 251-364); experiment: as above
T7 sequence (looked up): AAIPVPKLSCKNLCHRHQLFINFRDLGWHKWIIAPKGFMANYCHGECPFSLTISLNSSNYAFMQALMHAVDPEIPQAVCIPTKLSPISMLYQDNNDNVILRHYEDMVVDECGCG

[8] = biological target: T8, GDF8 (UniProt O14793 267-375); experiment: as above
T8 construct: also called myostatin
T8 sequence (looked up): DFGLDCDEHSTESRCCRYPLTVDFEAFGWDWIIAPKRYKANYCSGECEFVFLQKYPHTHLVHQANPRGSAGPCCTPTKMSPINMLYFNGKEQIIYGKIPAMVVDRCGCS

[9] = biological target: T9, GDF11 (UniProt O95390 299-407); experiment: as above
T9 construct: also called BMP11
T9 sequence (looked up): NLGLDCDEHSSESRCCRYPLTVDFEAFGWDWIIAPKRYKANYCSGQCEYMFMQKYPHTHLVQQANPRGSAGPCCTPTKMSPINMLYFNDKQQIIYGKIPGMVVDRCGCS

[10] = biological target: T10, BMP5 (UniProt P22003 317-454, limits assumed); experiment: as above
T10 sequence (looked up): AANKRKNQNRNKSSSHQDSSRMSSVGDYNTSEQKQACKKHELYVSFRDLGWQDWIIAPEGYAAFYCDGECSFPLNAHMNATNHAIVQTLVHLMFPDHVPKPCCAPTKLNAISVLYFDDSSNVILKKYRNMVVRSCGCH

[11] = biological target: T11, BMP6 (UniProt P22004 375-513, limits assumed); experiment: as above
T11 sequence (looked up): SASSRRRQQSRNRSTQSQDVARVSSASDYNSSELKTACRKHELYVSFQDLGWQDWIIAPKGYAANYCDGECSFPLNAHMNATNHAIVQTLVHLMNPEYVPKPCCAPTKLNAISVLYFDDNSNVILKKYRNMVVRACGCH

[12] = biological target: T1, activin A; experiment: SPR (Biacore), Fc fusion captured by anti-Fc antibody, 37 C
[13] = biological target: T3, BMP10; experiment: as above
[14] = biological target: T1, activin A; experiment: as above; remark: listed apart in the source
[15] = biological target: T2, BMP9; experiment: as above
[16] = biological target: T3, BMP10; experiment: as above; remark: listed apart in the source
[17] = biological target: T4, activin B; experiment: as above
[18] = biological target: T7, GDF3; experiment: as above
[19] = biological target: T8, GDF8; experiment: as above
[20] = biological target: T9, GDF11; experiment: as above
[21] = biological target: T11, BMP6; experiment: as above
[22] = biological target: T9, GDF11; experiment: not described

B1: ActRIIB-Fc:ALK7-Fc heterodimer (Fc fusion)
chain 1: GRGEAETRECIYYNANWELERTNQSGLERCEGEQDKRLHCYASWRNSSGTIELVKKGCWLDDFNCYDRQECVATEENPQVYFCCCEGNFCNERFTHLPEAGGPEVTYEPPPTAPT
chain 2: ELSPGLKCVCLLCDSSNFTCQTEGACWASVMLTNGKEQVIKSCVSLPELNAQVFCHSSNNVTKTECCFTDFCNNITLHLPTASPNAPKLGPME
Kd [1]: 43 pM | koff [1]: 0.0019 s⁻¹ | kon [1]: 4.4e+07 M⁻¹ s⁻¹ | Kd [2]: > 1400 pM | Kd [3]: 190 pM | koff [3]: 0.0028 s⁻¹ | kon [3]: 1.5e+07 M⁻¹ s⁻¹ | Kd [4]: 17 pM | koff [4]: 0.0002 s⁻¹ | kon [4]: 1.2e+07 M⁻¹ s⁻¹ | Kd [5]: 6900 pM | koff [5]: 0.0024 s⁻¹ | kon [5]: 350000 M⁻¹ s⁻¹ | Kd [6]: 220 pM | koff [6]: 0.00057 s⁻¹ | kon [6]: 2.6e+06 M⁻¹ s⁻¹ | Kd [7]: 4500 pM | koff [7]: 0.01 s⁻¹ | kon [7]: 2.3e+06 M⁻¹ s⁻¹ | Kd [8]: 270 pM | koff [8]: 0.001 s⁻¹ | kon [8]: 3.7e+06 M⁻¹ s⁻¹ | Kd [9]: 8 pM | koff [9]: 0.00075 s⁻¹ | kon [9]: 9.5e+07 M⁻¹ s⁻¹ | Kd [10]: 57000 pM | koff [10]: 0.0085 s⁻¹ | kon [10]: 150000 M⁻¹ s⁻¹ | Kd [11]: 5300 pM | koff [11]: 0.0063 s⁻¹ | kon [11]: 1.2e+06 M⁻¹ s⁻¹

B2: ActRIIB-Fc:ActRIIB(L79E)-Fc heterodimer (Fc fusion)
chain 1: B1 chain 1
chain 2: B1 chain 1 with L60E
fold faster off-rate than ActRIIB-Fc homodimer [12]: ~10 fold | fold faster off-rate than ActRIIB-Fc homodimer [13]: ~10 fold | Kd [14]: 170 pM | koff [14]: 0.0015 s⁻¹ | kon [14]: 8.8e+06 M⁻¹ s⁻¹ | Kd [15]: > 2800 pM | Kd [16]: 42 pM | koff [16]: 0.002 s⁻¹ | kon [16]: 4.8e+07 M⁻¹ s⁻¹ | Kd [17]: 25 pM | koff [17]: 0.00021 s⁻¹ | kon [17]: 8.3e+06 M⁻¹ s⁻¹ | Kd [18]: 10000 pM | koff [18]: 0.0059 s⁻¹ | kon [18]: 580000 M⁻¹ s⁻¹ | Kd [19]: 150 pM | koff [19]: 0.0005 s⁻¹ | kon [19]: 3.4e+06 M⁻¹ s⁻¹ | Kd [20]: 9 pM | koff [20]: 0.00036 s⁻¹ | kon [20]: 4e+07 M⁻¹ s⁻¹ | Kd [21]: 56 pM | koff [21]: 0.018 s⁻¹ | kon [21]: 3.3e+08 M⁻¹ s⁻¹

B3: ActRIIB-Fc with C-terminal tail (A64 background) (Fc fusion)
chain: SGRGEAETRECIYYNANWELERTNQSGLERCEGEQDKRLHCYASWANSSGTIELVKKGCWLDDFNCYDRQECVATEENPQVYFCCCEGNFCNERFTHLPEAGGPEVTYEPPPTAPTGGGTHTCPPCPAPELLGGPSVFLFPPKPKDTLMISRTPEVTCVVVDVSHEDPEVKFNWYVDGVEVHNAKTKPREEQYNSTYRVVSVLTVLHQDWLNGKEYKCKVSNKALPVPIEKTISKAKGQPREPQVYTLPPSREEMTKNQVSLTCLVKGFYPSDIAVEWESNGQPENNYKTTPPVLDSDGSFFLYSKLTVDKSRWQQGNVFSCSVMHEALHNHYTQKSLSLSPGK
notes: Alanine at position 64; also called preferred version of ActRIIB-Fc
binding result [22]: binds
